Residue numbers refer to the chain shown, from its start. One block for each molecule: values may come before it.
Assays:
[1] = biological target: site-specific biotinylated monomeric human CD32a^H (FcγRIIa, histidine-131 variant), recombinant (human) (UniProt P12318); experiment: SPR (Biacore 3000), steady state, monomeric IgG, pH 7.4
[2] = biological target: site-specific biotinylated monomeric human CD32a^H (FcγRIIa, histidine-131 variant), recombinant (human) (UniProt P12318); experiment: SPR steady state (refers to Table 6)
[3] = biological target: His-tagged soluble mouse FcRn (mFcRn), recombinant (mouse) (UniProt Q61559); experiment: method not stated; neutral pH
[4] = biological target: site-specific biotinylated monomeric human CD32a^R (FcγRIIa, arginine-131 variant), recombinant (human) (UniProt P12318); experiment: SPR (Biacore 3000), steady state, monomeric IgG, pH 7.4
[5] = biological target: T1, His-tagged soluble human FcRn (hFcRn), recombinant (human, UniProt P55899 24-290; P61769 21-119, limits assumed); experiment: bridging ELISA at pH 5.5: hFcRn/ALP-nanobody reporter complex at one concentration on captured CD32a^H without IgG
T1 construct: Made in an insect cell system 'as described previously'; also called recombinant hFcRn; hFcRn reporter complex (with ALP-conjugated hFcRn-specific nanobody)

[6] = biological target: T2, His-tagged soluble mouse FcRn (mFcRn), recombinant (mouse, UniProt Q61559 22-290; P01887 21-119, limits assumed); experiment: SPR at pH 5.5: mFcRn injected alone over CD32a^H captured on neutravidin (variant as titled on the sheet); the concentration is not printed on the sheet
T2 construct: Made in an insect cell system 'as described previously'; also called recombinant mFcRn
T2 sequence (looked up): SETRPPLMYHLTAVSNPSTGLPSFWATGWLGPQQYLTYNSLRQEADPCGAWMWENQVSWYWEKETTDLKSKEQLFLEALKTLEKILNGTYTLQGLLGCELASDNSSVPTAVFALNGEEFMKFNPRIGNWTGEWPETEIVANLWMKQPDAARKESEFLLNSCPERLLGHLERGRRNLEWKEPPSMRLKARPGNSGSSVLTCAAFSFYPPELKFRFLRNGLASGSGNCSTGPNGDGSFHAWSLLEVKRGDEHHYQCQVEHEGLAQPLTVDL
T2 sequence (b2m, looked up): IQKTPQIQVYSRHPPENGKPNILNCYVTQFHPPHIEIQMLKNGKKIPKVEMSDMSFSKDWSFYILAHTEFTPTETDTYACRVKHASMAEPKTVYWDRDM
Method: (§1) Recombinant C-terminus-biotinylated CD32a variants were captured on neutravidin-coated plates. Analyte(s) were then injected as indicated and specified in the material and methods. […] Recombinant C-terminus-biotinylated CD32a variants were captured on neutravidin amine-coupled CM5 sensor chips. Analyte(s) were then injected as indicated and specified in the material and methods.
(§2) The cDNAs encoding for CD32a^R and CD32a^H were subcloned into a pcDNA3.1 vector and sequences verified by DNA sequencing. […] To obtain clones with similar expression of CD32a^R or CD32a^H, transfected MDCK-II, HEK293T^H2-Kb, and RAW264.7 were processed by fluorescence-activated cell sorting (FACS; BD FACSAria II™). SPR and ELISA CD32a-IgG-FcRn binding SPR analysis was performed using a Biacore 3000™ instrument (GE Healthcare™). CM5™ sensor chips (GE Healthcare™) were coupled with neutrAvidin (Pierce™) (~1000 RU) using amine coupling chemistry, by injecting 5 g/ml in 10 mM sodium acetate, pH 4.5 (GE Healthcare™) at 25° C.).

[7] = biological target: T1, His-tagged soluble human FcRn (hFcRn), …; experiment: bridging ELISA at pH 5.5: hFcRn/ALP-nanobody reporter complex at one concentration on captured CD32a^R without IgG
[8] = biological target: T2, His-tagged soluble mouse FcRn (mFcRn), …; experiment: SPR at pH 5.5: mFcRn injected alone over CD32a^R captured on neutravidin (variant as titled on the sheet); the concentration is not printed on the sheet
Method: as §1, §2

Molecule: anti-NIP hIgG1-M252Y/S254T/T256E/H433K/N434F (hIgG1^MST/HN) (from UniProt P01857 1-330) (antibody)
- decrease of binding against hIgG1^WT [2]: 50%
- Kd [3]: 7.4 nM
- Kd [1]: 2800 nM

Molecule: anti-NIP chimeric IgG with wild type human IgG1 Fc (hIgG1^WT) (antibody)
- Kd [4]: 2000 nM
- Kd [1]: 1300 nM

B2: site-specific biotinylated monomeric human CD32a^R (FcγRIIa, arginine-131 variant), recombinant (receptor, UniProt P12318 34-218, looked up)
chain: QAAAPPKAVLKLEPPWINVLQEDSVTLTCQGARSPESDSIQWFHNGNLIPTHTQPSYRFKANNNDSGEYTCQTGQTSLSDPVHLTVLSEWLVLQTPHLEFQEGETIMLRCHSWKDKPLVKVTFFQNGKSQKFSRLDPTFSIPQANHSHSGDYHCTGNIGYTLFSSKPVTITVQVPSMGSSSPMGI
modifications: C-terminus biotinylated
notes: Bought recombinant protein; The substitution is written against the histidine-131 form; also called CD32a-R131; C-terminus biotinylated CD32a^R
- binding result [7]: no binding
- binding result [8]: no binding

Now from value to molecule:

- Kd [1]: 4800 nM
Molecule: anti-NIP hIgG1-I253A/H310A/H435A (hIgG1^IHH) (from UniProt P01857 1-330) (antibody)

- binding result [5]: no binding
- binding result [6]: no binding
B1: site-specific biotinylated monomeric human CD32a^H (FcγRIIa, histidine-131 variant), recombinant (receptor, UniProt P12318 34-218, looked up)
chain: B2 chain with R134H
modifications: C-terminus biotinylated
notes: Bought recombinant protein; also called CD32a-H131; C-terminus biotinylated CD32a^H

— patent US20260274961A1 (BRIGHAM AND WOMEN S HOSPITAL, published 2026)
